For experiment [1], the target named is T1, FcγR1 (CD64) (human, UniProt P12314 16-374).
T1 construct: whole, on cells
The experiment can be described thus: cell binding, FcγR-engineered HEK293 cells.

Experiment [2] concerns the target T2, FcγR2A (CD32aH131) (human, UniProt P12318 34-317).
T2 construct: whole, on cells
T2 sequence (looked up): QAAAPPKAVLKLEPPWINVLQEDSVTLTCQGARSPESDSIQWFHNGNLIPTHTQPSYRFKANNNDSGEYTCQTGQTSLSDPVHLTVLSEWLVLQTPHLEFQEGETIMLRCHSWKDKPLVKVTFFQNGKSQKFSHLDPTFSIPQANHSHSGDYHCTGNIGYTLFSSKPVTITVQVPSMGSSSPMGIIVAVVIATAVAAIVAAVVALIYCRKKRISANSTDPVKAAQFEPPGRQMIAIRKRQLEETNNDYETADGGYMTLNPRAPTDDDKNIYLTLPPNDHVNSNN
The experiment can be described thus: cell binding, FcγR-engineered HEK293 cells.

For experiment [3], the target named is T3, FcγR2A (CD32aR131) (human, UniProt P12318 34-317).
T3 construct: whole, on cells
T3 sequence (looked up): T2 sequence (looked up) with H134R
The experiment is described as follows: cell binding, FcγR-engineered HEK293 cells.

Experiment [4] has as its target T4, FcγR2B (human, UniProt P31994 43-310).
T4 construct: whole, on cells
T4 sequence (looked up): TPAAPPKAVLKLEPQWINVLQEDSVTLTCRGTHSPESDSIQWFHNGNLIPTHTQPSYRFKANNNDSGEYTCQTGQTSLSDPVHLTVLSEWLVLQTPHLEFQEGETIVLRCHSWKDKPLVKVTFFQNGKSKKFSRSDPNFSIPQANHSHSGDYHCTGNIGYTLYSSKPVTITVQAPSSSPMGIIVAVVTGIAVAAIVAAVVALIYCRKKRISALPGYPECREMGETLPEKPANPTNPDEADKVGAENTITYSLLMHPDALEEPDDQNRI
The experiment can be described thus: cell binding, FcγR-engineered HEK293 cells.

For experiment [5], the target named is T5, FcγR3A (CD16aV158) (human, UniProt P08637 17-254).
T5 construct: whole, on cells
The experiment is described as follows: cell binding, FcγR-engineered HEK293 cells.

The target of experiment [6] is T6, FcγR3A (CD16aF158) (human, UniProt P08637 17-254).
T6 construct: whole, on cells
The experiment can be described thus: cell binding, FcγR-engineered HEK293 cells.

Experiment [7] deals with T7, rat SIRPα on CHO-K1 cells (rat, UniProt P97710 32-509).
T7 construct: whole, on cells; also called rat SIRPα-CHO-K1
T7 sequence (looked up): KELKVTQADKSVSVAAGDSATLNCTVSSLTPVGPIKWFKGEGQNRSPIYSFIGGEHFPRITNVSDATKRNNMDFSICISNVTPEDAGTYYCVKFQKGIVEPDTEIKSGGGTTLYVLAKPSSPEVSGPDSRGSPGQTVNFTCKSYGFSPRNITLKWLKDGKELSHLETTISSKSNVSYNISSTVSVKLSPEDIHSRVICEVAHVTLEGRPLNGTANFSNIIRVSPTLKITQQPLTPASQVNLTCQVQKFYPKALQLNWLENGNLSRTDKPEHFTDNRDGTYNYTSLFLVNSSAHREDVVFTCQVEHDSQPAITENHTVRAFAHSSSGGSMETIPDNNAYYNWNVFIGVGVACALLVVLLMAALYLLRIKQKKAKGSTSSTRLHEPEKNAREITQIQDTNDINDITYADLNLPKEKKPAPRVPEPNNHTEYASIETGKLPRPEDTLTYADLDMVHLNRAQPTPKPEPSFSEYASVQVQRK
The experiment can be described thus: flow cytometry on Rat SIRPα-CHO-K1 cells. A general note: In flow cytometry, cells or beads pass a laser one at a time.

In experiment [8] the target is T8, extracellular domain of SIRPα v1-DLN (e.g. SIRPα1) (human, UniProt P78324 31-373).
T8 construct: also called hSIRPα - ECD (v1)
The experiment is described as follows: SPR Biacore T200, antibody captured on Protein A chip. For orientation: In SPR one partner is held on a chip, and binding of the other changes the refractive index at the surface.

The target in experiment [9] is T9, SIRPβ extracellular domain (human, UniProt O00241 30-371).
T9 construct: also called hSIRPβ - ECD
T9 chain: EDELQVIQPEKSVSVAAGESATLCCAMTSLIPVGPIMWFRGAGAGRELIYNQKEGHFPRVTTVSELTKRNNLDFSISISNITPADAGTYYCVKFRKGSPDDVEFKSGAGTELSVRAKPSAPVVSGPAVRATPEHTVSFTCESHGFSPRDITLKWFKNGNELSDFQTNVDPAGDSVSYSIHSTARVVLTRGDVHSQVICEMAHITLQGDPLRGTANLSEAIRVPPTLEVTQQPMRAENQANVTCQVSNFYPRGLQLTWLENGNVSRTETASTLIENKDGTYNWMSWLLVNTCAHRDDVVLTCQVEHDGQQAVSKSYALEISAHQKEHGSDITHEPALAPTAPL
The description is as above.

Experiment [10] concerns the target T10, SIRPγ extracellular domain (human, UniProt Q9P1W8 29-360).
T10 construct: also called hSIRPγ - ECD
The experiment is described as above.

Experiment [11] has as its target T9, SIRPβ extracellular domain. The experiment can be described thus: SPR Biacore T200, antibody on Protein A chip, 1:1 Langmuir fit.
Experiment [12] deals with T10, SIRPγ extracellular domain. The description is as above.
Experiment [13] has as its target T11, recombinant SIRPα protein (Novoprotein, catalog number C385) (human, UniProt P78324 31-370).
T11 construct: also called human recombinant SIRPα protein; SIRPα antigen
The experiment is described as follows: SPR Biacore T200 competition in solution, SIRPα 20 nM, competitor immobilized CD47-ECD.

Experiment [14] addresses T8, extracellular domain of SIRPα v1-DLN …. The experiment can be described thus: SPR Biacore T200, antibody on Protein A chip, 1:1 Langmuir fit; comparative Biacore study of Table 30, a separate experiment from Table 15.

Residue numbers refer to the chain shown, from its start. Numbers in names are those of the source.

B1: SIRPAB-11-K322A (antibody, human IgG1, kappa)
light: DIQMTQSPSSVSASVGDRVTITCRASQGISSWLAWYQQKPGKAPKLLIYAASNLQSGVPSRFSGSGSGTDFTLTISSLQPEDFATYYCQQGASFPITFGGGTKVEIKRTVAAPSVFIFPPSDEQLKSGTASVVCLLNNFYPREAKVQWKVDNALQSGNSQESVTEQDSKDSTYSLSSTLTLSKADYEKHKVYACEVTHQGLSSPVTKSFNRGEC
heavy: not shown
notes: human IgG1 with K322A (EU numbering); also called SIRPAB-11-IgG1-K322A; SIRPAB-11-K322A-AlexaFluor647
In general, EC50 refers to the concentration giving half of the maximal effect. Read a low EC50 as greater potency. As usually defined, the Kd is the free concentration of one partner at which half of the binding sites on the other are occupied at equilibrium, for simple one-to-one binding. Read a low Kd as higher affinity. A word on the koff: it is the rate constant with which the complex falls apart. Higher therefore signals fast dissociation. The term kon denotes a measure of how fast the partners come together. The term IC50 denotes the concentration needed to halve the response being measured. In the case of B1, the EC50 in experiment [1] was determined as 0.79 nM; in [2], 200 nM; in experiment [3], 194 nM; in experiment [4], 2480 nM; in [5], 795 nM; in experiment [6] it was 1200 nM. For the same molecule, in experiment [7], the binding result is “no binding (tested: 100 nM (Log nM 2))”. The Kd came to 0.0152 nM in experiment [8]; 12.1 nM in [9]; 0.0101 nM in experiment [10]; 0.38 nM in experiment [11]; 0.0632 nM in experiment [12]; 0.0923 nM in experiment [14]. For the same molecule, the values for the koff in experiment [8], in [9] and in [10] were 0.000118 s⁻¹, 0.000614 s⁻¹ and 0.000188 s⁻¹, respectively. Further, the kon turned out to be 7.75e+06 M⁻¹ s⁻¹ in experiment [8], 50600 M⁻¹ s⁻¹ in experiment [9] and 1.71e+07 M⁻¹ s⁻¹ in experiment [10]. Besides, in experiment [13], the IC50 was found to be 12.6 nM.

These data come from patent publication US20200102387A1 (CELGENE, published 2020).
